Assay results published in patent publication US20240116985A1 (published 2024).
Starred links: 1 amine or outer side, 2 acyl side, 3 side chain; linkers in the order of their positions; H or OH if unused. Positions of bridges follow the written chain, without caps; N, C: chain ends. Non-standard residues stand in square brackets, D forms with d. Primed or numbered codes have the meaning given here. *: point of attachment. PyrS2″ = (S)-3-amino-1-((pent-4-en-1-yloxy)carbonyl)pyrrolidine-3-carboxylic acid (stapling residue), C=CCCCOC(=O)N1CC[C@@](N[*:1])(C(=O)[*:2])C1; B5(4) = 2,2-bis(4-pentenyl)glycine = 2-amino-2-(pent-4-en-1-yl)hept-6-enoic acid (stitching residue), C=CCCCC(CCCC=C)(N[*:1])C(=O)[*:2]; TfeGA = (S)-2-amino-3-((carboxymethyl)(2,2,2-trifluoroethyl)amino)propanoic acid, O=C([C@H](CN(CC(=O)[*:3])CC(F)(F)F)N[*:1])[*:2]; PyrS2 = (S)-3-amino-1-((pent-4-en-1-yloxy)carbonyl)pyrrolidine-3-carboxylic acid, C=CCCCOC(=O)N1CC[C@@](N[*:1])(C(=O)[*:2])C1; B5(22) = 2-amino-2-(pent-4-en-1-yl)hept-6-enoic acid (two alkene side chains), C=CCCCC(CCCC=C)(N[*:1])C(=O)[*:2]; B5(3) = 2,2-bis(4-pentenyl)glycine (stitching residue), C=CCCCC(CCCC=C)(N[*:1])C(=O)[*:2]; Phe(2-CN) = N#Cc1ccccc1C[C@H](N)C(=O)O; Phe(2-Cl) = N[C@@H](Cc1ccccc1Cl)C(=O)O; Bta = N[C@@H](Cc1csc2ccccc12)C(=O)O; αAllylPro = C=CC[C@@]1(C(=O)O)CCCN1; tBuAla = CC(C)(C)C[C@H](N)C(=O)O; 3Thi = N[C@@H](Cc1ccsc1)C(=O)O; Thr(ol) = C[C@@H](O)[C@H](N)CO; NH(CH2)6NH2 = NCCCCCCN*; Alaol = C[C@@H](CO)N*

How the values were obtained:
Assay in all cases: cell-based or functional assay
[1] = biological target: T1, beta-catenin in DLD1 TCF/LEF reporter cells (UniProt P35222 1-781)
T1 sequence (looked up): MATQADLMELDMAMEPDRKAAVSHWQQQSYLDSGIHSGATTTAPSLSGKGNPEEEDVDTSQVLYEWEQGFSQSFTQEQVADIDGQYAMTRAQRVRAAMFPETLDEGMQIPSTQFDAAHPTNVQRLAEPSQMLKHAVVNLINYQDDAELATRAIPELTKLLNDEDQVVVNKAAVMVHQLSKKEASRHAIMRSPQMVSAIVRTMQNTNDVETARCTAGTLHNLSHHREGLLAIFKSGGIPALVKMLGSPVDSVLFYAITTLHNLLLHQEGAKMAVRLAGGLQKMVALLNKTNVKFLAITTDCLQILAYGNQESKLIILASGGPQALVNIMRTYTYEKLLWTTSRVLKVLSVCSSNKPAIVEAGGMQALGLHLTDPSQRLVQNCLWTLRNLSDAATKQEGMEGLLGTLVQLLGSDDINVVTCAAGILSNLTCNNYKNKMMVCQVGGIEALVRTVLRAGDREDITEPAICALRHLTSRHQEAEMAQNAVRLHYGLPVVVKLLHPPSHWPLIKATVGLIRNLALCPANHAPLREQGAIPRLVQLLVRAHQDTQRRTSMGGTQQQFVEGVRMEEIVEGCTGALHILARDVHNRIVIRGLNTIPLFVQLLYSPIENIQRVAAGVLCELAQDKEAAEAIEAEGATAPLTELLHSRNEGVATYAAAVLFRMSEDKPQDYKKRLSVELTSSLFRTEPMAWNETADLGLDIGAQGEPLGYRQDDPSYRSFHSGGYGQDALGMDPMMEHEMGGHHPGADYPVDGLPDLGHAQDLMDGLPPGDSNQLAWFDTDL

[2] = biological target: T2, B-cat-Halo (UniProt P35222 1-781)
T2 sequence (looked up): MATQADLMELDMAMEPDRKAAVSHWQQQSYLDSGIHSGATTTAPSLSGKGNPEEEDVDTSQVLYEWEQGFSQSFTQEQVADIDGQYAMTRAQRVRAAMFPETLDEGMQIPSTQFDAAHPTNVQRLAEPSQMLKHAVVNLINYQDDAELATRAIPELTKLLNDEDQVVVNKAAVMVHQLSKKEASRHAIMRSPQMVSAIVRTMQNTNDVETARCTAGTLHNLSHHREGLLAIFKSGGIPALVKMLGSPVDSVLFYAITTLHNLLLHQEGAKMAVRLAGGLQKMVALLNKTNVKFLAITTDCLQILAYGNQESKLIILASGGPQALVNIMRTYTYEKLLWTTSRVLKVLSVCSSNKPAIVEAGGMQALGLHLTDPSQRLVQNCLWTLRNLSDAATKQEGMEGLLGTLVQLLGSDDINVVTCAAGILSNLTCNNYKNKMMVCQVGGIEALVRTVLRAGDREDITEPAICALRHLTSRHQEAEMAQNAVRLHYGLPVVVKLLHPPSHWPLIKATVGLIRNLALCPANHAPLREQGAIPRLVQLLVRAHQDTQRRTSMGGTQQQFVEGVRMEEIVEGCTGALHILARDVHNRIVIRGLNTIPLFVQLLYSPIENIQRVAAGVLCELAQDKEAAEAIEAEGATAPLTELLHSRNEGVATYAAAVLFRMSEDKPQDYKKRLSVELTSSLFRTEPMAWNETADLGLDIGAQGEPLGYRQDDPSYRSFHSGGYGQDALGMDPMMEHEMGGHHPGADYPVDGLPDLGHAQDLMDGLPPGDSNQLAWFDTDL

[3] = biological target: T3, B-cat-Halo (beta-catenin HaloTag NanoBRET construct expressed in HEK293 cells) (UniProt P35222 1-781)
T3 sequence (looked up): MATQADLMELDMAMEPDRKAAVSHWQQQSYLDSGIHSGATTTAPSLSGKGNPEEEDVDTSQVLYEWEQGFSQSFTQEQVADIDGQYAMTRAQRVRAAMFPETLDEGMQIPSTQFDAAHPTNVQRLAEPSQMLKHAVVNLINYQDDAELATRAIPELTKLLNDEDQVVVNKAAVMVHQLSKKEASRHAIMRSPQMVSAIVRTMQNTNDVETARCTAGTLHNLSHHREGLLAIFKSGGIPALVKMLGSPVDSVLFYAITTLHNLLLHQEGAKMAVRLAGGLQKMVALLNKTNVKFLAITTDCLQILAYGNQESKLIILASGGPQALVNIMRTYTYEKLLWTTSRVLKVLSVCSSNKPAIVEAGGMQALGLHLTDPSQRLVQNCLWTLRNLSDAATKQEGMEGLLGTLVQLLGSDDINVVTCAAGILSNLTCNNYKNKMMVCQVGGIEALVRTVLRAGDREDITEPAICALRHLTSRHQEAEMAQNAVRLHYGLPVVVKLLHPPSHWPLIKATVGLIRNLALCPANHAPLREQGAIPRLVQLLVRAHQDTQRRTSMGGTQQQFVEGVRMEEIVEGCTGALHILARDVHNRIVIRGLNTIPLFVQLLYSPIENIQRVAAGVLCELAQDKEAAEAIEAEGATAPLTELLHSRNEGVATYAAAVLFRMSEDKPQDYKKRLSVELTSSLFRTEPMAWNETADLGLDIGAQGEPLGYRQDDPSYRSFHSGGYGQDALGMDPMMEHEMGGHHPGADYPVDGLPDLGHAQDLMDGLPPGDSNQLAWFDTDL

[4] = biological target: T4, B-cat-Halo (beta-catenin HaloTag fusion expressed in HEK293 cells) (UniProt P35222 1-781)
T4 sequence (looked up): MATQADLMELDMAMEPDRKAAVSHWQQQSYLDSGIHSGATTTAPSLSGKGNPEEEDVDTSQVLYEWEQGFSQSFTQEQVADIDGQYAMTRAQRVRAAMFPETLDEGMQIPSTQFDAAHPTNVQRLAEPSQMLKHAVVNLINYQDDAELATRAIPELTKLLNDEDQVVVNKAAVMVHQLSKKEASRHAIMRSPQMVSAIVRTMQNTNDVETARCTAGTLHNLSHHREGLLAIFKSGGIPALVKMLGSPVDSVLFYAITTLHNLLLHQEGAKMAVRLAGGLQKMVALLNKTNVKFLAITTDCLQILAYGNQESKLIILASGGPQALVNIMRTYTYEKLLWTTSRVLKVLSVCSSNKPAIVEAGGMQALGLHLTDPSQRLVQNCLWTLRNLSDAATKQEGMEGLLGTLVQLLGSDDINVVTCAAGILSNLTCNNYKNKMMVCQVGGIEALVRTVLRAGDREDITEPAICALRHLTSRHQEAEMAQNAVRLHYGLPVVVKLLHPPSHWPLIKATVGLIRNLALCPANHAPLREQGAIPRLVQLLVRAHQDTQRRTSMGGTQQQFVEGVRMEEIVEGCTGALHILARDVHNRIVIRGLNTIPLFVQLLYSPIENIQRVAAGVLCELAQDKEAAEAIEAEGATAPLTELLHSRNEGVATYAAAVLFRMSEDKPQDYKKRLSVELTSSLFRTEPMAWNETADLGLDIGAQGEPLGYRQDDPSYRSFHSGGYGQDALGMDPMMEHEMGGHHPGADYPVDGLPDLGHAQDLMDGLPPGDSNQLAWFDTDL

[5] = biological target: T5, B-cat-Halo (beta-catenin HaloTag NanoBRET construct expressed in HEK293 cells) (UniProt P35222 1-781, HaloTag NanoBRET 618 Ligand bound to the HaloTag)
T5 sequence (looked up): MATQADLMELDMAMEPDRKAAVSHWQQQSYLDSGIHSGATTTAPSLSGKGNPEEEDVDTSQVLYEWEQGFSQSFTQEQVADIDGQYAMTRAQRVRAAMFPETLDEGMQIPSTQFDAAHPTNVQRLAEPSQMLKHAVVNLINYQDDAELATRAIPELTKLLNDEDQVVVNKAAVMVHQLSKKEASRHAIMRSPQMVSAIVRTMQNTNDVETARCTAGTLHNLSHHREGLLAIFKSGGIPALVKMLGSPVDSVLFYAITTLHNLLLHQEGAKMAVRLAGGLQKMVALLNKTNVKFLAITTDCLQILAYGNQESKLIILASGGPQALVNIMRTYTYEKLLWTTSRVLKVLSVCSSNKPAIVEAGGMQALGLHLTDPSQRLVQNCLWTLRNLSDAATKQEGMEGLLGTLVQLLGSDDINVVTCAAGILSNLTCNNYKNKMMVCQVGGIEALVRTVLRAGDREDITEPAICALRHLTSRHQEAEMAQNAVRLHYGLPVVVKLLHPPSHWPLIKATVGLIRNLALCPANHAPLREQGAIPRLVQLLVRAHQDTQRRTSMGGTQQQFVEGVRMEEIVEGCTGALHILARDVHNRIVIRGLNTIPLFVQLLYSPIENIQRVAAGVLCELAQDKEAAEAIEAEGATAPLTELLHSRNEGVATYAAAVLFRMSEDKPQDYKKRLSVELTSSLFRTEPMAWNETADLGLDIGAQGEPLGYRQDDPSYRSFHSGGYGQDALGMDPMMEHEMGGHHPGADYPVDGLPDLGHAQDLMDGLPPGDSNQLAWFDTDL

B1: I-1241 (peptide)
peptide: Ac-[αAllylPro]D[tBuAla][B5(4)]D[TfeGA]AAFT[PyrS2″][Phe(2-Cl)][Bta][Thr(ol)]
modifications: staple 1-4, 4-11
[1]
  DLD1 reporter assay Abs IC50: 3.8 µM
[2]
  NanoBRET Abs IC50: 15.7 µM

B2: I-1061 (peptide)
peptide: Ac-[αAllylPro]D[tBuAla][B5(4)]D[TfeGA]AAFT[PyrS2][Phe(2-Cl)][Bta]Q-{NH(CH2)6NH2}
modifications: staple 1-4, 4-11
[3]
  NanoBRET Abs IC50: 10.3 µM

B3: Ac-PL3-Asp-Npg-B5-Asp-Asp-Ala-Ala-Phe-Leu-PyrS2-2CNF-BztA-Gln-NH2 (peptide)
peptide: Ac-[αAllylPro]D[tBuAla][B5(3)]DDAAFL[PyrS2″][Phe(2-CN)][Bta]Q-NH2
modifications: staple 1-4, 4-11
[4]
  NanoBRET Abs IC50: 10 µM

B4: I-1053 (peptide)
peptide: XDXXDDAAFNXXXQ
modifications: not fully specified; AzAc-PL3-Asp-Npg-B5-Asp-Asp-Ala-Ala-Phe-Asn-S8-3Thi-BztA-Gln-NH2; stapled PL3-B5 and B5-S8 (olefin metathesis)
[3]
  NanoBRET Abs IC50: > 20 µM

B5: I-1246 (peptide)
peptide: Ac-[αAllylPro]D[tBuAla][B5(4)]DDAAFT[PyrS2″][Phe(2-Cl)][Bta]-Alaol
modifications: staple 1-4, 4-11
[1]
  DLD1 reporter assay Abs IC50: 15.9 µM
[2]
  NanoBRET Abs IC50: 24.3 µM

B6: I-935 (peptide)
peptide: Ac-[αAllylPro]D[tBuAla][B5(22)]DDAAFN[PyrS2][3Thi][Bta]QK(PropynPEG1)-NH2
modifications: staple 1-4, 4-11
[5]
  NanoBRET Abs IC50: 33.1 µM

B7: I-939 (peptide)
peptide: Ac-[αAllylPro]D[tBuAla][B5(22)]DDAAFN[PyrS2][3Thi][Bta]QK-NH2
modifications: staple 1-4, 4-11
[5]
  NanoBRET Abs IC50: 25.1 µM
